Reference: the nanobody polyreactivity screen of Harvey et al. (2022)

Test: yeast display, Sf9 membrane polyspecificity reagent, FACS + sequencing; frameworks hold sequencing errors
Method in brief: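 Using colony PCR, genes from sorted yeast display clones were amplified, then sequenced on MiSeq at 2 × 250 and filtered by CDR length. The clones had been stained with 10% biotinylated, detergent-solubilized Sf9 membrane reagent for 1 hour at 4 °C and sorted by FACS into low and high (top ~1%) gates on anti-HA and streptavidin fluorescence. Polyreactivity labels come from the gate of origin.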
For “QVQLVESGGGLVQAGGSLRLSCAASGSTFEHYAMGWYRQAPGKERELVAAITRRGGSTYYADSVKGRFTISSDNAKNTVYLQMNSLKPEDTAVYYCYTVLRYSYYLPGYDYWGQGTQVTVSS”, the “polyreactivity (PSR sort gate)” value was “high polyreactivity”. With “QVQLVESGAGLVQAGGSLRLSCAASGSTFGKYAMGWYTQAPGKEMELVARIDSGDGTYYADSVKGRFTISRDNAKNTVYLQMNSLKPEDTAVYYCAARYGARRLTYFWPQYARYDYWGQGTKVTVSS” the “polyreactivity (PSR sort gate)” value was “high polyreactivity”. With “QVQLVESGGGLVQAGGRLRFSCADSGITFLRYAIGWSRQAPGKERELVAGISYTGGSTNYADSVKGRFTISRDNAKNTVYLQMNSLKPEDSSVYYCAAQGYRWYDYWGQGTQVTVSS” the “polyreactivity (PSR sort gate)” value was “high polyreactivity”. For “QVQLVESGGGLVQAGGSLRLSCAASGNIFGENAMGWYRQAPGKERELVAAITRIDGNTYYADSVKGRVTISRDNAKNTVYLQMNSLKPEDTAVYYCATDEPVGRYQHNYYWGQGTQVTVSS”, the “polyreactivity (PSR sort gate)” value was “low polyreactivity”. In the case of “QVQLVESWGGLVQAGGSLRLSCAASGSTISANALGWDRQAPGTEREWVASISRRGGSPYYADSVKGRFTISRDKATNTVYLQMNSLKPEDTAVYYSGAVFRYYARTFDYWGQGTQVSVSS”, the “polyreactivity (PSR sort gate)” value was “high polyreactivity”. With “QVQLVESGGGLVQAGGSLRLSCAASGRTIRHNAMGWYRQAPGKERELVAAISRSGGSTYYADSVKGRFTISRDNAKNTVYLQMNSLKREDTAVYYCAAGYHGYDWGQGTQVTVSS” the “polyreactivity (PSR sort gate)” value was “high polyreactivity”. For “QVQLVESGGGLVQAGGSLRLSSAASGNIFYGYAIGWYRQAPGKERELVARINWSGTRTYYADSVKGRFTISRDNAKNTVYLQMNSLKPEDTAVYYCAADRYRKYYRRYYYWGQGTQVTVSS”, the “polyreactivity (PSR sort gate)” value was “high polyreactivity”. In the case of “QVQLVESGGGLVQAGGSLRLSCAASGIIFYYNAMGWYRPAPGNERELVAAISGRGGSTYYADSVKGRVTISRDNAKNTVYLQMTSLKPEDTAVYYCAAARVGSRYGYDYWGQGTQGTVSS”, the “polyreactivity (PSR sort gate)” value was “low polyreactivity”. With “QVQLVESGGGLVQAGGSLRLSCAASGNTYSYNAMGWYRQAPGKEREFVASISRRGGRTNYADSVKGRFTISRDNAKNTVYLQMNSLKPEDTAVYYCAATTVPLGDYWGQVTQVTVSS” the “polyreactivity (PSR sort gate)” value was “high polyreactivity”. With “QVQLVESGGALVQAGGSLRLSCAASGLTFTDYAMGWYRPAPGQERELVAGIWDGGSTYYADSVKGRFTISRDNAKNTVYLQMNSLKPEDTAVYYCAAEDWWTSFPEYYYWGQGTQVTVSS” the “polyreactivity (PSR sort gate)” value was “high polyreactivity”. In the case of “QVQLVESGGGLVQAGGSLRLSCAASGFIFRFYAMGWYRQAPGKERELVASISRRAGRTYYADSVKGRFTISRDNAKNTVYLQMNSLKPEDTAVYYCAASGFGSFRYSSTYDYWGQCTQVTVSS”, the “polyreactivity (PSR sort gate)” value was “high polyreactivity”. With “QVQLVESGGGLVQAGGSLRLSCAASGRIFYSYAMGWYREAPGKERELVARITRGSSTYYADSVKGRFTISRDNAKNTVYLQMNSLKPEDTAVYYCAKSRYTALTNHWSHDYWGQGTQVTVSS” the “polyreactivity (PSR sort gate)” value was “low polyreactivity”. For “QVQLLESAGGLVQAGGSLRLSCAASGFIYIPYAMGWYRQAPGKERELVAAISTRGGGTYYADSVKGRFTISRDNAKKPVYLQMNSVKPEDTAVYYCNKQAFYNGRVGYDYWGQGTQVTVSS”, the “polyreactivity (PSR sort gate)” value was “low polyreactivity”. With “QVHLVESGGGLVQAGGSLRISCAASGLIFPDYTMGWYRPAPGKESELVAVITDGDSTYYADSVKGRFTISRDNAKNTVYLQMNSLKPEDTAVYYCASELDGSKYTLDYWGQGTQVTVSS” the “polyreactivity (PSR sort gate)” value was “low polyreactivity”. In the case of “QVQLVESGGGLVQAGGSLRLSCAASGSTFYIYAMGWYRQAPGKERELVASIRLSTGRTNYADSVKGRFTISRDNAKNTVYLQMNSLKPEDTAVYYCAAAGYRGGGYWGQGTQVTVSS”, the “polyreactivity (PSR sort gate)” value was “high polyreactivity”. For “QVQLVESGGGLVQAGGSLRLSCAASGGTFSFYTMGWYRQGPGKERELVAAIDSTGRTNYADSVKGRFTISRENAKNTVYLLMNSLKPDDTAVYYCSAGPPRADYDYWGQGTQVTVSS”, the “polyreactivity (PSR sort gate)” value was “low polyreactivity”. With “QVQLVESGGGLVQAGGSLRLSSAASGSTFEAYTMGWYRPAPGKERELVAAISRSGGSTYYADSVKGRFTISRDNAKNTVYLQMNSLKPEDTAVYYCAASRYIGYNYWGQGTQVNVSS” the “polyreactivity (PSR sort gate)” value was “high polyreactivity”. In the case of “QVQLVESVGGLVQAGGILRLSCAASGNTFPAYAMGWYRQAPGKERELVATISWSTGSTNYADSVKGRFTISRDTAKNTVYLQMNSLKPEDTAVYYCAASYWCYEYDYWGLGTQVTVSS”, the “polyreactivity (PSR sort gate)” value was “low polyreactivity”. With “QVQLVESGGGLVQAGGSLRLSCAASGSIFPSYAMGWYRQAPGKERELVATISGSGTRTYYADSVKGRFTISRDNAKNTVYVQMNSLKPEDTAVYDCARLPPGDMDYWGQGTQVTVSS” the “polyreactivity (PSR sort gate)” value was “low polyreactivity”. For “QVQLVESGGGLVQAGGSLRLSCAASGSIFKRNAMGWYRQAPGKERQLVASISWSGSRTYYADSVKGRFTISRDNAKNTVYLQMISLKPEDTAVYYCARRIYGGHPSQSTQGDFYYWGQGTQVTVSS”, the “polyreactivity (PSR sort gate)” value was “high polyreactivity”. With “QVQLVESGGGLVQAGGSLRLSCAASGSISKGYAMGWYRQAPGKERELVARISGDGGSTYYADSVKGRFTISRDNAKNTVYLQMNSLKPEDTAVYYCNARAYYGIRYYSWGQGTQVTVSS” the “polyreactivity (PSR sort gate)” value was “high polyreactivity”. With “QLQLVESRRGLVHAGGSLRLSSDASGRIFLYYAMGWYRQAPVKERELVARITSSGSTYYADSVKGLFTISRDNAKNTVYLQMNSLKPEDTAVYYCAADWYWGGIVDSWGQGTQVTVSS” the “polyreactivity (PSR sort gate)” value was “high polyreactivity”. For “QVQLVESGGGLVQAGGSLRLSCAASGIIFTGYAMGWYRQAPGKERELVAAISDTGGSTYYADSVKGRFTISRDNAKNTVYLQMNSLKPEDTAVYYCAADWWSRYYYWGQGTQVTVSS”, the “polyreactivity (PSR sort gate)” value was “high polyreactivity”. In the case of “QVHLVESGGGLVQAGGSLRLSCAASGLIIYRYAMGWYRQAPGKERELVAAITTNGARTYYADSVKGRFTISRDNAKNTVYLQMTSLIPEDTAVYYCAAYGAGKFWAEHNYWGLGTQVTVSS”, the “polyreactivity (PSR sort gate)” value was “high polyreactivity”. In the case of “QVQLVESGGGLVQAGGSLRLSCAASGRIFNLYVMGWYRQAPGKERELVATISSGGSTNYADSVKGRFTISRDYAKNTVYLQMNSLKPEDTAVNYCAKPYIVYYTMDYWGQGTQVTVSS”, the “polyreactivity (PSR sort gate)” value was “low polyreactivity”. For “QVQLVESGGGLVQAGGSLRLSCAASGFIFVWYAMGWYRQAPGKEREMVAAISFSGSSTYYADSVKGRFTITRDNAKNTVYLQMNSLKPEDTAVYYCAKRIAKYIPRYKFDYWGQGTQVTVSS”, the “polyreactivity (PSR sort gate)” value was “high polyreactivity”. With “QVQLVESGGGLVQAGGSLRLSCAASGRIFYYNDMGWYRQAPGKERELVATITIGNSTNYADSVKGRFTISRDNAKNTVYLQMKSLKPEDTAVYYCNADYSDVTTGDWRYENDYWGQGTQVTVSS” the “polyreactivity (PSR sort gate)” value was “low polyreactivity”. In the case of “QVQLVESGGGLVQAGGSLRLSCAASGFTFWRNTMGWYRQAPGKERELVAGISGSGGSTYYADSVKGRFTISRDNAKNTVYLQMNSLKPEDTAVYYCAVRGGYTWPTYNYWGQGTQVTVSS”, the “polyreactivity (PSR sort gate)” value was “high polyreactivity”. With “QVQLVESGGGLVQAGGSLRLSCAASGFTFTAYAMGWYRPAPGKERELVAAISYRGGRTNYAYSVKGRFTISRDNAKNTVYLQMNSLKPEDTAVYYCAARPRISTREMDYWGQGTQVTVSS” the “polyreactivity (PSR sort gate)” value was “high polyreactivity”. With “QVQLVESGGGLVQAGGSLRLSCAASGRIFYIYTMGWYRQAPGKEREFVAGINWNGGSTYYADSVKGRFTISRDNAKNTVYLQMNSLKPEDTAVYYCNADQYWDRYYYWGQGTQVTVSS” the “polyreactivity (PSR sort gate)” value was “low polyreactivity”. In the case of “QVQLVESGGGLVQAGGSLRLSCAASGRTFGGYAMGWYRQAPGKERELVASITRSGGGTYYADSVKGRFTISRDNAKNTVYLQMNSLKPEDTAVYYCAVYFANPYSVYGLGVYSTLNYWGQGTQVTVSS”, the “polyreactivity (PSR sort gate)” value was “low polyreactivity”. In the case of “QVQLVESGGGLVQAGGSLRLSCAASGSNYSSNAMGWYRQATGKERELVAAISRSGVTTYYADSVKGRFTISRDNAKNTVYLQMNSLKPEDSAVYYCAAQPYSRLYGRYLGFQYKYDYWGQGTQLTVSS”, the “polyreactivity (PSR sort gate)” value was “low polyreactivity”.
